The text below walks through data of publication PMC5546597.

Assay [1] has as its target MTCL1 CC1 fragment purified from E. coli (mouse). The assay can be described thus: cross-linking; purified CC1 fragment (0.52 mg/ml) in PBS, 30 min at 25°C with DST (0.1, 0.3 and 0.9 mg/ml); stopped with 50 mM Tris-HCl pH 7.5.
Assay [2] has the same target. The assay can be described thus: SDS-PAGE without heat pretreatment; purified tag-free CC1 fragment in SDS sample buffer with 2% SDS, with or without heat treatment (100°C, 10 min); CBB staining.

Turning to “MTCL1 CC1 fragment purified from E. coli (domain or fragment)”, the stoichiometry N in assay [1] and in assay [2] was 2 in each case.
